According to US20180291088A1:
“And” between values parts separate entries of the source, which are not always exact repeats. Equal entries are not always repeated.

Assays:
[1] = target: EBOV GP on pseudotyped lentivirus particles (EBOV , Mayinga) (UniProt Q05320); assay: cell-based or functional assay
[2] = target: EBOV GP , coated on ELISA plates (EBOV , Mayinga) (UniProt Q05320)
[3] = target: EBOV GP on pseudotyped lentivirus particles (EBOV , Mayinga), Q05320; assay: cell-based or functional assay
[4] = target: EBOV GP , coated on ELISA plates (EBOV , Mayinga) (UniProt Q05320); remark: listed apart in the source

KZ52 monoclonal antibody
maximum inhibition of input pseudovirus [1]: 80% and 90%

13C6 monoclonal antibody
neutralization of pseudovirus at 10 µg/mL [1]: < 20%

B1: EVB114 monoclonal antibody (antibody, V domains shown)
VH: EVQLVESGGGLIQPGGSLRLSCAASGFALRMYDMHWVRQTIDKRLEWVSAVGPSGDTYYADSVKGRFAVSRENAKNSLSLQMNSLTAGDTAIYYCVRSDRGVAGLFDSWGQGILVTVSS
VL: DIQMTQSPSSLSASVGDRITITCRASQAFDNYVAWYQQRPGKVPKLLISAASALHAGVPSRFSGSGSGTHFTLTISSLQPEDVATYYCQNYNSAPLTFGGGTKVEIK
EC50 [2]: 0.07 µg/mL | maximal binding, higher than the other mAbs [2]: 100% | maximum inhibition of input pseudovirus [3]: 100%

B2: EVB165 monoclonal antibody (antibody, V domains shown)
VH: DVQLVESGGGVVQPGGSLKLACVVSGFRFSDYWMSWVRQAPGKGLEWVANIKQDGSGKYYVDSVKGRFTVSRDNAKNSLYLHMTSLGAEDTAVYFCARAAPTGSYTNILVDNVHFDYWGQGILVAVSS
VL: GIQLTQSPGSLSASVGDSVTITCRPNQNIATYINWYQQTPGKAPKLLIYAASILQSGVPSRFSGAGSGTHFTLIISTLQPEDSATYYCQQSYSTPWTFGQGTKVEIK
EC50 [2]: > 1 µg/mL | Abs 450 [4]: 3.17 A450 and 1.72 A450 | maximum inhibition of input pseudovirus [3]: 100%

B3: EVB167 monoclonal antibody (antibody, V domains shown)
VH: AVQLVQSGAEVKKPGTTVKISCKVSGYTFIQEYIHWVQQAPGKGLVWMGLGDPENNETLYSEDFQGRVTMTADTSSDTAYLELRSLTFADTAVYFCTSRKSWWGQGTLVTVAS
VL: ELVLTQSPGTLSLSPGESATLSCRASQSLSSDSVSWFQQKPGQAPRLVIHGTSKRATGIPDRFSGGGSGTDFTLTIARLEPEDFAVYYCQRSGYGMSVTWTFGQGTTVEIK
Abs 450 [4]: 3.37 A450 and 2.97 A450

B4: EVB166 monoclonal antibody (antibody, V domains shown)
VH: QVQLVQSGAEVKKPGSSVKVSCKTSGGTLSNYAISWVRQAPGQGLEWMGGTIPTLGMSTYAPNFQGRVAITADKSTSTAYMELSSLRSDDTAVYYCATMGSADTSFYFYMDVWGKGTTVTVSS
VL: EIVLTQSPGTLSLSPGERATLSCRASQSVSSSYLAWYQQKPGQAPRLLIYGTSSRATGIPDRFSGSASGTDFTLTISRLEPEDFAVYYCQQYAYSPFTFGPGTKVDIK
maximum inhibition of input pseudovirus [3]: 100%

B5: EVB100 monoclonal antibody (antibody, V domains shown)
VH: QVQLQESGPGLVKPSDTLSLTCTVSGGSLSSFYWSWIRQPPGKGLEWIGYIYYSGSPNYSPSLESRVTMSVDTTRNQISLKLDSVTAADTAVYYCVRASRSYYWGSYRPTAFDSWGQGTLVTVSS
VL: SYELTQPLSVSVSPGQTAIFTCSGDNLGDKYVCWFQQRPGQSPMLLIYQDNKRPSGIPERFSGSNSGNTATLTISGTQSTDEADYYCQTWDSTVVFGGGTKLTVL
EC50 [2]: 0.26 µg/mL | maximum inhibition of input pseudovirus [3]: 100%
